Paper PMC4880913, “Solution structure and binding specificity of the p63 DNA binding domain”
Changes are numbered by the printed parent chain.

What was measured:
[1] = molecular target: p53-DBD (UniProt P04637 94-312); assay: fluorescence polarization; FP: 100 nM 5'-fluorescein dsDNA, 10 mM sodium phosphate pH 7.2, 1 mM DTT, temperature not stated; NMR: 1 mM sodium phosphate pH 7.2, 100 mM NaCl, 5 mM DTT, 303; conditions: protein: recombinant; chain copies: 2; label: 5'-fluorescein; blunt
[2] = molecular target: T1, p63-DBD L210E (UniProt Q9H3D4 153-388, L249E); assay: as above; conditions: protein: recombinant; label: 5'-fluorescein; blunt
T1 sequence: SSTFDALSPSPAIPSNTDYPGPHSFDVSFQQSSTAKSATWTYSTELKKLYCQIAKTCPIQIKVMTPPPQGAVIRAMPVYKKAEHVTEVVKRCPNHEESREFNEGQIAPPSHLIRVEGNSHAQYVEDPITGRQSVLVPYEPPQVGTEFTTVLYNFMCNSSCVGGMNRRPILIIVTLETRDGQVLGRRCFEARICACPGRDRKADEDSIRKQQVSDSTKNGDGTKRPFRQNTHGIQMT

[3] = molecular target: T2, p63-DBD (UniProt Q9H3D4 153-388); assay: NMR titration (1H-15N TROSY); 100 mM NaCl; FP: 100 nM 5'-fluorescein dsDNA, 10 mM sodium phosphate pH 7.2, 1 mM DTT, temperature not stated; NMR: 1 mM sodium phosphate pH 7.2, 100 mM NaCl, 5 mM DTT, 303; conditions: protein: recombinant; tags: His-tag removed with thrombin (pET28a construct); blunt
T2 sequence: T1 sequence with E97L

Sequence of p53-DBD (P04637 94-312): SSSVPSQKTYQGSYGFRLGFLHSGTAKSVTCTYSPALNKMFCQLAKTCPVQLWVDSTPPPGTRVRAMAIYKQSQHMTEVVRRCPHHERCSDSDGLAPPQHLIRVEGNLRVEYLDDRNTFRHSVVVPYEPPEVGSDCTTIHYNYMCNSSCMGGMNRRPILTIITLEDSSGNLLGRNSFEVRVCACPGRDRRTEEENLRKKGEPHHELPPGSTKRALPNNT

B1: con2 x 5 (FP) (dsDNA)
DNA 1: TTAGGACATGTCCATC
DNA 2: GATGGACATGTCCTAA
**Q.** What does the source list for B1?
**A.** binding result [1]: binds; binding result [2]: binds

B2: con2 x 5 (NMR) (dsDNA)
DNA 1: TTAGGACATGTCCATC
DNA 2: GATGGACATGTCCTAA
**Q.** Does B2 bind [3]?
**A.** binds
